Source: patent US10919943B2, “Mutant proteins enabling agrochemical control of plant gene expression” (The Regents of the University of California, priority 2016, dated 2021)
Numbering of substitutions follows the chain as printed. In names and notes the source's numbering stands.

B1: L117P: PYR1 mutant (protein, UniProt O49686 1-191, looked up, variant L117P)
Abscisic acid receptor PYR1: MPSELTPEERSELKNSIAEFHTYQLDPGSCSSLHAQRIHAPPELVWSIVRRFDKPQTYKHFIKSCSVEQNFEMRVGCTRDVIVISGLPANTSTERLDILDDERRVTGFSIIGGEHRPTNYKSVTTVHRFEKENRIWTVVLESYVVDMPEGNSEDDTRMFADTVVKLNLQKLATVAEAMARNSGDGSGSQVT
B2: P148Q: PYR1 mutant (protein, UniProt O49686 1-191, looked up, variant P148Q)
Abscisic acid receptor PYR1: B1 Abscisic acid receptor PYR1 with P117L, P148Q
B3: L117H: PYR1 mutant (protein, UniProt O49686 1-191, looked up, variant L117H)
Abscisic acid receptor PYR1: B1 Abscisic acid receptor PYR1 with P117H
B4: P148L: PYR1 mutant (protein, UniProt O49686 1-191, looked up, variant P148L)
Abscisic acid receptor PYR1: B1 Abscisic acid receptor PYR1 with P117L, P148L
B5: P148R: PYR1 mutant (protein, UniProt O49686 1-191, looked up, variant P148R)
Abscisic acid receptor PYR1: B1 Abscisic acid receptor PYR1 with P117L, P148R
B6: L117S: PYR1 mutant (protein, UniProt O49686 1-191, looked up, variant L117S)
Abscisic acid receptor PYR1: B1 Abscisic acid receptor PYR1 with P117S
B7: L117E: PYR1 mutant (protein, UniProt O49686 1-191, looked up, variant L117E)
Abscisic acid receptor PYR1: B1 Abscisic acid receptor PYR1 with P117E
B8: L117D: PYR1 mutant (protein, UniProt O49686 1-191, looked up, variant L117D)
Abscisic acid receptor PYR1: B1 Abscisic acid receptor PYR1 with P117D
B9: L117G: PYR1 mutant (protein, UniProt O49686 1-191, looked up, variant L117G)
Abscisic acid receptor PYR1: B1 Abscisic acid receptor PYR1 with P117G
B10: L117K: PYR1 mutant (protein, UniProt O49686 1-191, looked up, variant L117K)
Abscisic acid receptor PYR1: B1 Abscisic acid receptor PYR1 with P117K
B11: P148M: PYR1 mutant (protein, UniProt O49686 1-191, looked up, variant P148M)
Abscisic acid receptor PYR1: B1 Abscisic acid receptor PYR1 with P117L, P148M
B12: L117T: PYR1 mutant (protein, UniProt O49686 1-191, looked up, variant L117T)
Abscisic acid receptor PYR1: B1 Abscisic acid receptor PYR1 with P117T
B13: L117W: PYR1 mutant (protein, UniProt O49686 1-191, looked up, variant L117W)
Abscisic acid receptor PYR1: B1 Abscisic acid receptor PYR1 with P117W
B14: L117Y: PYR1 mutant (protein, UniProt O49686 1-191, looked up, variant L117Y)
Abscisic acid receptor PYR1: B1 Abscisic acid receptor PYR1 with P117Y
B15: L117Q: PYR1 mutant (protein, UniProt O49686 1-191, looked up, variant L117Q)
Abscisic acid receptor PYR1: B1 Abscisic acid receptor PYR1 with P117Q
B16: L117V: PYR1 mutant (protein, UniProt O49686 1-191, looked up, variant L117V)
Abscisic acid receptor PYR1: B1 Abscisic acid receptor PYR1 with P117V
B17: P148N: PYR1 mutant (protein, UniProt O49686 1-191, looked up, variant P148N)
Abscisic acid receptor PYR1: B1 Abscisic acid receptor PYR1 with P117L, P148N
B18: L117R: PYR1 mutant (protein, UniProt O49686 1-191, looked up, variant L117R)
Abscisic acid receptor PYR1: B1 Abscisic acid receptor PYR1 with P117R

Test system: HAB1
Assay: Yeast two hybrid of pBD-PYR1 site saturation mutants with pACT-HAB1 on 10 μM ABA, β-galactosidase staining
Format: cell-based, Arabidopsis
Parameters: key: x: Mutations in PYR1 that disrupt ABA-induced binding to PYR1 to HAB1
Details: S. cerevisiae Y190, 10 μM ABA; dead = lack of visible staining in comparison to wild type control
In short: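 S. cerevisiae Y190 co-expressing GAL4-DNA-binding-domain–PYR1 mutants and GAL4-activation-domain–HAB1 were spotted on SD (-Leu, -Trp) agar with 10 μM (+)-ABA for 2 days at 30° C. Colonies were chloroform-lysed and stained for β-galactosidase. Mutants lacking visible staining relative to wild type were scored as non-binding.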

Mutations in PYR1 that disrupt ABA-induced binding to PYR1 to HAB1 | Molecule
x | B1
x | B2
x | B3
x | B4
x | B5
x | B6
x | B7
x | B8
x | B9
x | B10
x | B11
x | B12
x | B13
x | B14
x | B15
x | B16
x | B17
x | B18
